Five substances from patent US20240109955A1 can be followed below.

Assay in all cases: cell-based or functional assay
Assay [1] addresses SARS-CoV-2 Omicron variant XBB spike protein (SARS-CoV-2).
Assay [2] addresses SARS-CoV-2 Omicron variant BQ.1.1 spike protein (SARS-CoV-2).
Assay [3] concerns the target SARS-CoV-2 spike (S) protein, Omicron sublineage BA.1.1 (R346K) (SARS-CoV-2) (UniProt P0DTC2).
Assay [4] has as its target SARS-CoV-2 spike (S) protein, Omicron sublineage BQ 1.1 (R346T, K444T, F486V) (SARS-CoV-2) (UniProt P0DTC2).
In assay [5] the target is SARS-CoV-2 spike (S) protein, Omicron sublineage BA.4.7 (R346S, F486V) (SARS-CoV-2) (UniProt P0DTC2).
Assay [6] addresses SARS-CoV-2 Omicron variant BA.2.75.2 spike protein (SARS-CoV-2).
Assay [7] has as its target SARS-CoV-2 spike (S) protein, Omicron sublineage BF.7 (R346T, F486V) (SARS-CoV-2) (UniProt P0DTC2).
For assay [8], the target named is SARS-CoV-2 spike (S) protein, Omicron sublineage BA.4.6 (R346T, F486V) (SARS-CoV-2) (UniProt P0DTC2).
For assay [9], the target named is SARS-CoV-2 spike (S) protein, Omicron variant BA.1 (SARS-CoV-2) (UniProt P0DTC2).
For assay [10], the target named is SARS-CoV-2 spike (S) protein, Omicron variant BA.2 (SARS-CoV-2) (UniProt P0DTC2).
Assay [11] has as its target SARS-CoV-2 spike (S) protein, Alpha variant (B.1.1.7) (SARS-CoV-2) (UniProt P0DTC2).
For assay [12], the target named is SARS-CoV-2 spike protein, Delta variant (B.1.617.2) (SARS-CoV-2).
Assay [13] concerns the target SARS-CoV-2 spike (S) protein, C.1.2 variant (SARS-CoV-2) (UniProt P0DTC2).
In assay [14] the target is SARS-CoV-2 spike (S) protein, Lambda variant (C.37) (SARS-CoV-2) (UniProt P0DTC2).
Assay [15] has as its target SARS-CoV-2 spike (S) protein, Mu variant (B.1.621) (SARS-CoV-2) (UniProt P0DTC2).
Assay [16] addresses SARS-CoV-2 spike protein, Omicron variant BA.2.12.1 (SARS-CoV-2) (UniProt P0DTC2).
Assay [17] concerns the target SARS-CoV-2 spike (S) protein, Iota variant (B.1.526) (SARS-CoV-2) (UniProt P0DTC2).
In assay [18] the target is SARS-CoV-2 Omicron BA.4.6 spike protein (R346T, F486V) (SARS-CoV-2) (UniProt P0DTC2).
The target of assay [19] is SARS-CoV-2 spike protein, Gamma variant (P.1) (SARS-CoV-2).
The target of assay [20] is SARS-CoV-2 spike protein, Omicron variant BA.1 (SARS-CoV-2) (UniProt P0DTC2).
The target in assay [21] is SARS-CoV-2 spike protein, Omicron variant BA1.1.529 (SARS-CoV-2) (UniProt P0DTC2).
Assay [22] has as its target SARS-CoV-2 spike protein, Omicron variant BA.2 (SARS-CoV-2) (UniProt P0DTC2).
The target of assay [23] is SARS-CoV-2 spike protein, Beta variant 1 (B.1.351.v1) (SARS-CoV-2).
Assay [24] has as its target SARS-CoV-2 spike protein, Alpha variant (B.1.1.7) (SARS-CoV-2).
The target of assay [25] is SARS-CoV-2 spike (S) protein, Omicron variant BA.4/5 (SARS-CoV-2) (UniProt P0DTC2).
Assay [26] deals with SARS-CoV-2 spike protein, Omicron sublineage BA.1.1 (R346K) (SARS-CoV-2) (UniProt P0DTC2).
In assay [27] the target is SARS-CoV-2 spike protein, Omicron variant (B.1.1.529) (SARS-CoV-2) (UniProt P0DTC2).
Assay [28] addresses SARS-CoV-2 spike (S) protein, Omicron variant BA1.1.529 (SARS-CoV-2) (UniProt P0DTC2).
For assay [29], the target named is SARS-CoV-2 spike (S) protein, Omicron variant BA.2.12.1 (SARS-CoV-2) (UniProt P0DTC2).
Assay [30] addresses SARS-CoV-2 Omicron variant BA.4/5 spike protein (SARS-CoV-2).
In assay [31] the target is SARS-CoV-2 spike protein, Omicron variant BQ.1.1 (SARS-CoV-2).
For assay [32], the target named is SARS-CoV-2 spike protein, Omicron variant BA.2.75.2 (SARS-CoV-2).
In assay [33] the target is SARS-CoV-2 spike protein, Omicron variant BA.4/5 (SARS-CoV-2).

Chain of A19-46 (antibody) (VH): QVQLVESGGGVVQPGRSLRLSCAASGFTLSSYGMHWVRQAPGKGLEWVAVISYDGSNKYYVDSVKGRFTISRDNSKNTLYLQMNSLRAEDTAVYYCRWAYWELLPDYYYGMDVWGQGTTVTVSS
Chain of A19-46 (antibody) (VL): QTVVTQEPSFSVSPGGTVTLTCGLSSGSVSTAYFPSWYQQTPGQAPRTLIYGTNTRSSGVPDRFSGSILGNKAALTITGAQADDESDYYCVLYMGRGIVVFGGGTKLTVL
Chain of A19-46.1 (antibody) (VH): as the sequence (VH) above
Chain of A19-46.1 (antibody) (VL): as the sequence (VL) above

Regarding bebtelovimab (LY1404) (antibody), the IC50, pseudovirus neutralization in [1] was over 10 mg/L; in assay [2], over 10 mg/L; in assay [3], 26.4 nM; in [4], over 10000 nM; in assay [5], 5.9 nM; in assay [6], 0.00567 mg/L. Besides, the IC50, pseudovirus neutralization in [7] turned out to be 16.9 nM; in [8] it was 22.3 nM. Also, the IC80, pseudovirus neutralization in assay [1] is over 10 mg/L; in assay [2], over 10 mg/L; in assay [3], 65.1 nM; in assay [4], over 10000 nM; in assay [5], 16.1 nM; in [6] it was 0.0207 mg/L. For the same substance, the values for the IC80, pseudovirus neutralization in assay [7] and in assay [8] were 25.2 nM and 25.4 nM, respectively.
Take LY-CoV555 (antibody): the pseudovirus neutralization IC50 in [9] was over 67 nM; in [10], over 67 nM; in assay [11], 0.0145 nM. Also, the pseudovirus neutralization IC80 in assay [9] was over 67 nM; in assay [10], over 67 nM; in assay [11], 0.0361 nM.
Regarding A19-46.1 (antibody), the IC50, pseudovirus neutralization in assay [12] is over 66.7 nM; in assay [16], over 66.7 nM; in assay [18] it was over 10000 nM; in assay [19] it was 0.26 nM; in assay [20] it was 0.958 nM; in assay [21] it was 1.84 nM. For the same substance, the IC50, pseudovirus neutralization in assay [22] is 0.69 nM; in [23], 0.807 nM; in [24] it was 0.19 nM. In addition, the IC80, pseudovirus neutralization in assay [12] is over 66.7 nM; in [16], over 66.7 nM; in assay [18] it was over 10000 nM; in assay [19], 0.7 nM; in [20], 2.28 nM; in assay [21], 2.84 nM. Besides, the IC80, pseudovirus neutralization in assay [22] was found to be 2.23 nM; in [23] it was 2.07 nM; in assay [24], 0.486 nM. Besides, the pseudovirus neutralization IC50 (nM (inferred)) in assay [13] was 11.6; in [14], over 66.7; in assay [15], 1.34; in [17] it was 0.803. The pseudovirus neutralization IC80 (nM (inferred)) in assay [13] is 21; in [14], over 66.7; in assay [15], 3.81; in [17], 1.88.
B1-182.1 (antibody): the IC50, pseudovirus neutralization in [12] stood at 0.0099 nM; in assay [26] it was 213 nM; in [19] it was 0.0182 nM; in [27] it was 401 nM; in assay [23], 0.0357 nM; in assay [24] it was 0.0262 nM. In addition, the IC80, pseudovirus neutralization in assay [12] turned out to be 0.0254 nM; in assay [26] it was 1300 nM; in assay [19], 0.0429 nM; in assay [27], 1020 nM; in [23], 0.139 nM; in assay [24], 0.0844 nM. Besides, the pseudovirus neutralization IC50 (nM (inferred)) in assay [25] is over 66.7; in assay [13], 0.0549; in [14] it was 0.0049; in [15] it was 0.0695; in assay [9], 1.03; in [10], 2.12. Besides, the figures for the pseudovirus neutralization IC50 (nM (inferred)) in assay [17], in assay [28] and in assay [29] were 0.0639, 2.55 and 0.739, respectively. The pseudovirus neutralization IC80 (nM (inferred)) in assay [25] was over 66.7; in [13], 0.11; in [14], 0.015; in assay [15], 0.219; in assay [9] it was 4.44; in assay [10], 8.5. The pseudovirus neutralization IC80 (nM (inferred)) in [17] was 0.183; in assay [28], 6.47; in [29] it was 5.92.
In the case of A19-46 (antibody), the IC50, pseudovirus neutralization in [30] is over 10 mg/L; in assay [2] it was 0.386 mg/L; in assay [31], 0.386 mg/L; in assay [32] it was over 10 mg/L; in assay [6], over 10 mg/L; in [33], over 10 mg/L. The IC80, pseudovirus neutralization in [30] is over 10 mg/L; in assay [2], 1.11 mg/L; in assay [31], 1.11 mg/L; in assay [32] it was over 10 mg/L; in [6] it was over 10 mg/L; in assay [33] it was over 10 mg/L.
